Measured values as given in article PMC7291619.

Target: in vitro-polymerized and paclitaxel-stabilized microtubules (UniProt P02554)
Experiment: co-sedimentation; varied concentrations of purified His-TbSpef1 incubated with in vitro-assembled, paclitaxel-stabilized microtubules at room temperature for 30 min; diluted in cushion buffer (80 mM PIPES pH 7.0, 1 mM MgCl2, 1 mM EGTA, 60% glycerol, 20 uM paclitaxel); 100,000 x g, 30°C, 30 min; pellets and supernatants immunoblotted

Chain of in vitro-polymerized and paclitaxel-stabilized microtubules (P68363 whole entry, chain 1 of 2): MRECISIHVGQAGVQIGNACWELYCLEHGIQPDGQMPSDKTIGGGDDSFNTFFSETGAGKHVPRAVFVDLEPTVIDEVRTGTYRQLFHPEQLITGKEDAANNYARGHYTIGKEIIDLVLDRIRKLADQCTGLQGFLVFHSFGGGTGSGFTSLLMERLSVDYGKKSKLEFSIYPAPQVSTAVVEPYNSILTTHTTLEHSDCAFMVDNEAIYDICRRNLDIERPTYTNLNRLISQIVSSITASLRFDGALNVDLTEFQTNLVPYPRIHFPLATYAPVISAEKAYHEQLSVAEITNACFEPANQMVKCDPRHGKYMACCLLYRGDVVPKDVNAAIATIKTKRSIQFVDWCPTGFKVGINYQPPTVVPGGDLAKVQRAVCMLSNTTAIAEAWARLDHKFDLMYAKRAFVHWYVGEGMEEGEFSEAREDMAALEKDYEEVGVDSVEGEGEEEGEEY
Chain of in vitro-polymerized and paclitaxel-stabilized microtubules (P02554 whole entry, chain 2 of 2): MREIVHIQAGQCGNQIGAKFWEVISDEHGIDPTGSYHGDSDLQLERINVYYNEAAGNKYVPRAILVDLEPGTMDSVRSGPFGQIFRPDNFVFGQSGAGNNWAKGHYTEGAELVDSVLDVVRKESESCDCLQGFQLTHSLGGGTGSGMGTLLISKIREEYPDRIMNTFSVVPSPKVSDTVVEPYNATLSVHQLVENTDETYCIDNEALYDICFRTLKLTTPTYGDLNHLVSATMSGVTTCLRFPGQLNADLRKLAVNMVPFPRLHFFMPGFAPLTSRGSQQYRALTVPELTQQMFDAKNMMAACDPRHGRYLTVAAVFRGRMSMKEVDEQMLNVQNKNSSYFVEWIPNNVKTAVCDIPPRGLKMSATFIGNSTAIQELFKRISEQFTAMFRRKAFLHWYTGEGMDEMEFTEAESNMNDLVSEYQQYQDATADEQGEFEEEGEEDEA

His-TbSpef1 (natural protein)
stoichiometry N (TbSpef1 per α/β-tubulin dimer): > 1
